These results are taken from patent US20230212305A1 (published 2023).

Residue numbers refer to the chain shown, from its start.

T1: cynomolgus ABCG2 (Macaca fascicularis) (UniProt Q5MB13 1-654)
T1 chain: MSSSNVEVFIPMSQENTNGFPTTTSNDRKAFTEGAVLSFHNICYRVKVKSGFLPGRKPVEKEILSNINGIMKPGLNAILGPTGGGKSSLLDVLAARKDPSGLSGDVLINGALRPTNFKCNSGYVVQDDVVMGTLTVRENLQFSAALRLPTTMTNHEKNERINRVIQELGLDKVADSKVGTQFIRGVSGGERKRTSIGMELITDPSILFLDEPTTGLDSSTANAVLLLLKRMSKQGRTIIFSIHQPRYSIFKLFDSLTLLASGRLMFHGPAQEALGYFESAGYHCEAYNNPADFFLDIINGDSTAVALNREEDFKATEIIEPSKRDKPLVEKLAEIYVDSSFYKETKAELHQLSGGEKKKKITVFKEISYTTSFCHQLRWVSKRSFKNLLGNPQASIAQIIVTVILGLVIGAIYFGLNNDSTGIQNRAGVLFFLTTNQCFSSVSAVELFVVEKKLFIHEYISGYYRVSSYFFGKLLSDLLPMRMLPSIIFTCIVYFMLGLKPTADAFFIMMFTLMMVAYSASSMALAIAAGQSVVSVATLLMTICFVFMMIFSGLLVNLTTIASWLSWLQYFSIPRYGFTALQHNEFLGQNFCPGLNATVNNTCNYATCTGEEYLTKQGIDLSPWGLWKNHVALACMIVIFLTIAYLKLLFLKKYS

T2: human ABCG2 (UniProt Q9UNQ0 1-655)
T2 chain: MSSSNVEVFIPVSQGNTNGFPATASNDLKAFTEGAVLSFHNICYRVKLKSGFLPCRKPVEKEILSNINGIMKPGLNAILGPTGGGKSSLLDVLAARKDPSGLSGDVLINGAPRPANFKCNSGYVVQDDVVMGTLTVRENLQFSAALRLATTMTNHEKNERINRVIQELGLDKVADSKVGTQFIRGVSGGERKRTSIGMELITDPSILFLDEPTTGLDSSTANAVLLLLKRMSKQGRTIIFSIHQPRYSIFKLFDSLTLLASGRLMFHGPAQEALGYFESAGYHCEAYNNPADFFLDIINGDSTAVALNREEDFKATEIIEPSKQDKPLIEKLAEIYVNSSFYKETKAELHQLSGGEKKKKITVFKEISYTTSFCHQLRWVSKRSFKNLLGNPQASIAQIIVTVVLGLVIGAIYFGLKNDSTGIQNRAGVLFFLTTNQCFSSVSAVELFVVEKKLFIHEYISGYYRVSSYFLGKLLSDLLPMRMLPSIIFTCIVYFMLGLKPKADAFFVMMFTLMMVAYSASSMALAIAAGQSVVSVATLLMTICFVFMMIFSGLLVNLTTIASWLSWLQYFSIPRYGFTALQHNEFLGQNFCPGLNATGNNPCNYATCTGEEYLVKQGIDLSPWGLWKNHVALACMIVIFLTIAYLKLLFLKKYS

B1: G2.636.hu25 (antibody, V domains shown)
VH: EVQLVESGGGLVQPGGSLRLSCAASGFTFSRFYMAWVRQAPGKGLEWVAHISHGGDTTYYRDSVKGRFTISRDNSKNTLYLQMNSLRAEDTAVYYCTTSAAPWNYVMDGWGQGTLVTVSS
VL: AIQLTQSPSSLSASVGDRVTITCKGSQNINNFLAWYQQKPGKAPKLLIYKTNSLHTGIPSRFSGSGSGTDYTLTISSLQPEDFATYYCYQYNNGYTFGQGTKLEIK
B2: G2.636.hu27 (antibody, V domains shown)
VH: B1 VH
VL: B1 VL with A1D, I21L
B3: G2.636.hu45 (antibody, V domains shown)
VH: B1 VH with T114A, L115T
VL: B1 VL
B4: G2.636.hu47 humanized (antibody, V domains shown)
VH: B1 VH with T114A, L115T
VL: B1 VL with A1D, I21L
B5: G2.65 mouse (antibody, V domains shown)
VH: QGQMHQSGAELVKPGASVKLSCKTSGFTFNSGYISWLKQKPRQSLEWIAWIYAGTGISNFNQKFTGKAQLTVDTSSSTAYMQLSSLTSADSAIYFCASGARKTLDFWGQGTSVTVSS
VL: DIQMTQSSSYLSVSVGGRVTITCKASDQINYWLAWYQQKPGNAPRLLISGATSLETGVPSRFSGSGSGKDYTLSITSFQTEDVATYYCQQYWTTPYTFGGGTKVEIK
B6: G2.173 mouse (antibody, V domains shown)
VH: QVQLQQSGADLVRPGASVKLSCTASGFNIKDDYVHWVKQRPEQGLEWIGRIDPANGNTRYAPKFRGKATMTADTSSNTAYLQLSSLTSADTAVYYCSPPLWVGGFAYWGQGTLVTVSS
VL: DVVMTQTPLSLPVSLGDQASISCRSSQSLVHSDVNTYLHWYLQRPGQSPKLLIYKVSNRFSGVPDRFSGSGSGTDFTLKISRVESEDLGIYFCSQTTHVPYTFGGGTKLEIK
B7: G2.631 rat (antibody, V domains shown)
VH: EVKLLESGGGLVQSGRSLKLSCAASGFIFSRFYMAWVRQAPRKGLEWVAYISNGAGSTYYRESVKGRFIISRDNAKSTLYLQMDSLRSEDTATYYCTTVAAPWNYVMDGWGQGASVTVSS
VL: NIQITQSPSLLSASVGDRVTLSCKGSQNINNYLAWYQQKLGEAPKLLIYKTNSLHTGIPSRFSGSGSGTDYTLTISSLHSEDLATYYCYQYNNGYTFGAGTKLELK
B8: G2.629 rat (antibody, V domains shown)
VH: EVQLVESGGGLVQPGRSLKLSCAASGFIFSRFYMAWVRQAPTKGLEWVAYINTGGGTTYYRDSVKGRFTISRDNAKTTLYLQMDSLRSEDTATYYCTTLAAPWNYVMDAWGQGASVTVSS
VL: B7 VL with N1D, I2V, Q3V, I4M, S22T, Y32F, I48T, A99P
B9: G2.343 rat (antibody, V domains shown)
VH: SVQLKESGPGLVQPSQTLSLTCTVSGFSLTSNGVSWVRQPPGKGLEWIAAISSGGSTYYNSVLKSRLSISRDTSKSQVFLKMNSLQTEDTAIYFCTRDTYYGYNQIPFVYWGQGTLVTVSS
VL: DVVLAQTPPTLSATIGQSVSISCRSSQSLLHSSGNTYLNWLLQRPGQPPQLLIYLVSRLESRVPNRFSGSGSGTDFTLKISGVEAEDLGVYYCVQSTHAPRTFGGGTKLELK
B10: G2.420 rat (antibody, V domains shown)
VH: SVQLMESGPGLVQPSQTLSLTCTVSGFSLNSYNVNWVRQPPGKGLEWIAAISSGGSTYYNSVLKSRLSITRDTSKSQVFLKMNSLQTEDTAMYFCARSGYYSSYMNWGQGVMVTVSS
VL: B9 VL with L4M, A5T, S33T, S61Y, R62G, V94A, P100L, R101N, G105A
B11: G2.333 rat (antibody, V domains shown)
VH: EIQLQESGPGLVKPSQSLSLTCSVTGYTITSGYDWTWLRKFPGNKMEWMGYISYSGFTNYNPSLRSRISISRDTSKNQFFLQLNSVTTEDTATYYCARTRGYNPFPYWGQGTLVTVSS
VL: DIQMTQSPSLLSASVGDRVSLSCKAGRNVNNYLAWYQQKLGKPPKLLIYNSNSLQTGIPSRFSGSGSGTDFTLTISSLQPEDVATYFCQQYNSWTTFGSGTKLEIK
B12: G2.318 rat (antibody, V domains shown)
VH: B11 VH with I2V, Q3K, Q5L, T36S, L38I, F57W, T99V, P106A
VL: B11 VL with Q3V, S20T, R27Q, V29I, K42E, P43A, S51A
B13: G2_732 (antibody, V domains shown)
VH: VQLKESGPGLVQPSQTLSLTCTVSGLSLTSTGVSWIRQPPGKGLEWMGVIWSNGGTDYNSAIKSRLSISRDTSKSQVFLKMNSLQTEDTAMYFCARAIAPSYIMDAWGQGASVTVSS
VL: DIQMTQSPPSLSASLGDKVTITCQASQNIHKYIAWYRQKPGKPPRLLIRYTSTLQSGTPSRFSGSGSGRDYSFSISNVESEDIASYYCLQYVNLWTFGGGTKLELK
B14: G2_767 (antibody, V domains shown)
VH: QVQLKESGPGLVQPSQTLSLTCTVSGLSLSSNSVSWIRQPPGKGLEWMGVIWNNGGTDYNSAIKSRLSISRDTSKSQVFLKLSSLQTEDTAMYFCARGYSSYIFDYWGQGVMVTVSS
VL: DIQMTQSPPSLSASLGDKVTITCQSSQNINNYIAWYQQKPGEAPRVLIRYTSTLQSGAPSRFSGSGSWRDYSFTISNVESEDIADYYCLQYVNLWTFGGGTKLEIK
B15: G2.760 rat (antibody, V domains shown)
VH: EVQLVESGGGLVQPGRSMKLSCAASGFTFSKSDMAWVRQAPTKGLKWVASIRYDGGNTYYRDSVRGRFTISRDNAKSTLYLQMDSLRSEDTATYYCSTAKAAISTPSYYVLDAWGQGASVTVSS
VL: DIGMTQSPTSMSKSVGDRVTMNCKASQNVGSNVDWFQQKTGQSPKLLIYKSSNRYTGVPARFTGSGSGTDFTFTISNMQAEDLAVYYCMQSNSYPPTFGGGTKLELK
B16: G2.757 rat (antibody, V domains shown)
VH: QVTLKESGPGILRPSHTLSLTCSFSGFSLTTYGICVSWIRQPSGKGLEWLANICWEDSKAYNPSLKNRLTISKDTSNNQVFLRIPSVDTADSAIYYCARVFNNYPFPYWGQGTLVTVSS
VL: TQSPPSLSASLGDKVTITCQASQNINKYVAWYQQKPGKAPRLLIRYTSTLESGTPSRFSGSGSWRDYSFSISNVESEDIADYYCLQYVNLWTFGGGTKLELK
B17: G2.758 rat (antibody, V domains shown)
VH: QGTLKESGPGIVQSSHTLSLTCSFSGFSLSTYGMGVSWIRQPSGKGLEWLASVWWNGDTSNNPSLKSRLTVSKDTS
VL: DIQMTQSPPSLSASLGDKVTITCQASQNIYKYIAWYQQKPGKAPRLLIRYTSTLHFGTPSRFSGSGSGRDYSFSISNVESEDIARYYCQQYVKFPNTFGAGTILELK

The target of the first test is T1, cynomolgus ABCG2 (Macaca fascicularis). The test can be described thus: cell binding.
The term EC50 denotes the concentration giving half of the maximal effect. A higher EC50 goes with a less potent agent. The molecule B1 had an EC50 of 87.4 nM.
Molecule B2 gave an EC50 of 38.8 nM.
Same read-out and setting: the figure for B3 is 65.3 nM.
The same measure, in the same setting: for B4 the value was 42.6 nM.

Another test addresses T2, human ABCG2. The experiment in a line: cell binding.
In turn, B1 had an EC50 of 28.5 nM.
On the same count and under the same terms, for B2 the value was 23.1 nM; for B3, 18.5 nM; for B4, 20.4 nM.

The target of the next test is T2, human ABCG2. The test can be described thus: FACS cell binding (MFI).
As to B5, the EC50 came to 180 nM.
Consider B6, for which the EC50 amounted to 17.1 nM. Compared with the last molecule, the EC50 is about 11-fold lower.

A further test has as its target T1, cynomolgus ABCG2 (Macaca fascicularis). The test can be described thus: FACS binding to 293T cells.
As usually defined, the Kd is the equilibrium constant for the complex coming apart. A low value points to a tighter complex. For the molecule B7, the dissociation constant (Kd) came to 67.7 nM.
The same measure, in the same setting: for B8 the value was 540 nM; for B9, 58.4 nM; for B10, 29.9 nM.
As to B11, binding was put at a Kd of 111 nM.
The same measure, in the same setting: for B12 the value was 49.8 nM.

A further test concerns the target T2, human ABCG2. The experiment in a line: FACS binding to 293T cells. (In general: A flow cytometer gives signals particle by particle.)
Molecule B7 displayed a dissociation constant Kd of 4.6 nM.
On the same count and under the same terms, the figure for B8 is 50.1 nM.
On to B9, for which the Kd stood at 8.4 nM. This Kd lies about 6-fold lower than the previous one.
Same read-out and setting: for B10 the value was 11.1 nM.

In another test the target is T1, cynomolgus ABCG2 (Macaca fascicularis). The test can be described thus: FACS binding to 293T cells. The source holds these as a separate data set.
The molecule B7 returned a Kd of 15 nM.
The same measure, in the same setting: the figure for B13 is 14.8 nM.

The target in a further test is T2, human ABCG2. The test can be described thus: FACS binding to 293T cells. This is another data set of the same source.
Turning to B13, the Kd is 6.2 nM.

The target in a further test is T2, human ABCG2. The test can be described thus: FACS binding to 293T.hG2 cells.
For the molecule B14, the equilibrium dissociation constant (Kd) is 31.2 nM.
On the same count and under the same terms, for B15 the value was 3.4 nM; for B16, 12.4 nM.
Take B17: the affinity, expressed as Kd, was 17.5 nM.

Another test addresses T1, cynomolgus ABCG2 (Macaca fascicularis). The test can be described thus: FACS binding to 293T.cG2 cells.
Take B14: binding was characterised by a dissociation constant (Kd) of 1370 nM.
Same read-out and setting: for B15 the value was 2.4 nM; for B16, 73.5 nM; for B17, 107 nM.
